Source: patent US20210032299A1 (Eli Lilly, published 2021)
Starred links: 1 amine or outer side, 2 acyl side, 3 side chain; linkers in the order of their positions; H or OH if unused. Non-standard residues stand in square brackets, D forms with d. Groups on a side chain read outwards from the residue. No end group written: not given here. *: point of attachment. C20 diacid = O=C(O)CCCCCCCCCCCCCCCCCCC(=O)*; αMePhe(2-F) = C[C@](N)(Cc1ccccc1F)C(=O)O; γGlu = O=C(O)[C@H](CCC(=O)[*:2])N[*:1]; αMeF = C[C@](N)(Cc1ccccc1)C(=O)O; 4Pal = N[C@@H](Cc1ccncc1)C(=O)O; αMeL = CC(C)C[C@](C)(N)C(=O)O; AEEA = NCCOCCOCC(=O)O; Aib = CC(C)(N)C(=O)O

T1: human glucose-dependent insulinotropic polypeptide (GIP) receptor (human, UniProt P48546 22-466)
T1 construct: whole, on cells; Assayed as crude membranes of stably transfected CHO cells; also called hGIPR; human GIP receptor
T1 sequence (looked up): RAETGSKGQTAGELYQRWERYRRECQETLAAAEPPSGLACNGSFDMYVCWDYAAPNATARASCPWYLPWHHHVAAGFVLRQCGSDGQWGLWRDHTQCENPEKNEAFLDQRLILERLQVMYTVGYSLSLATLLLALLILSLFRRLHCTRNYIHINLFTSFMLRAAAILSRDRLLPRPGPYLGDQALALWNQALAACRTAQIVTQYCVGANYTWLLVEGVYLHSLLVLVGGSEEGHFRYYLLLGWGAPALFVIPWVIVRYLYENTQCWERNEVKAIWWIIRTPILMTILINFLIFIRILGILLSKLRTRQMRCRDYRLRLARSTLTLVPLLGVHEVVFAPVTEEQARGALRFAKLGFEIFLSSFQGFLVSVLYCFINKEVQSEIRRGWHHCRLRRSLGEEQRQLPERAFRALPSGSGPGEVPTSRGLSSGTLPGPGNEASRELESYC


Columns and labels:
human glucagon receptor = biological target: T2, human glucagon receptor (human, UniProt P47871 26-477); assay: SPA, displacement of [125I]-Gcg from hGcgR membranes, 0.1% bacitracin
T2 construct: whole, on cells; Assayed as crude membranes of stably transfected HEK293 cells; also called hGcgR; GcgR
T2 sequence (P47871 26-477): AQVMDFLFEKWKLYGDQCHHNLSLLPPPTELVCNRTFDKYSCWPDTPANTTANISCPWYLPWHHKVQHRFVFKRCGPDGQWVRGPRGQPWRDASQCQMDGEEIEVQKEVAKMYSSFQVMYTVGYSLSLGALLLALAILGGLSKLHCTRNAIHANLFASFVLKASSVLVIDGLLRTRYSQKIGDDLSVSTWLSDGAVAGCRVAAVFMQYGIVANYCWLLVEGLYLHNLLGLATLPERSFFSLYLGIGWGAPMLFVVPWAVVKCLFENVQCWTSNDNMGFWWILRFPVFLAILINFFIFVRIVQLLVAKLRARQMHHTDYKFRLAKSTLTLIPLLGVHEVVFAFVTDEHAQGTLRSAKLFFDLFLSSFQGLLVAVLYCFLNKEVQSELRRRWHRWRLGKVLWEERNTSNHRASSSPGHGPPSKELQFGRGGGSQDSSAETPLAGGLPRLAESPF
In short: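 Binding buffer: 25 mM HEPES pH 7.4, 2.5 mM CaCl₂, 1 mM MgCl₂, 0.003% Tween-20, protease inhibitors without EDTA. Counted by scintillation after 12 h incubation/settling at room temperature. Four-parameter nonlinear fit; Kᵢ given as geometric mean ± SEM of independent replicates run on different days.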

human GLP-1 receptor = biological target: T3, human GLP-1 receptor (human, UniProt P43220 24-463); assay: SPA, displacement of [125I]-GLP-1 from hGLP-1R membranes, 0.1% bacitracin
T3 construct: whole, on cells; Assayed as crude membranes of stably transfected HEK293 cells; also called hGLP1R; hGLP-1R
In short: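 Binding buffer: 25 mM HEPES pH 7.4, 2.5 mM CaCl₂, 1 mM MgCl₂, 0.1% bacitracin, 0.003% Tween-20, protease inhibitors without EDTA. Four-parameter nonlinear regression; Kᵢ given as geometric mean ± SEM, n = independent replicates run on different days.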

[1] = biological target: T1, human glucose-dependent insulinotropic …; assay: SPA, displacement of [125I]-GIP from hGIPR membranes, 0.1% bacitracin

Binder	Ki (human glucagon receptor) [nM]	Ki (human GLP-1 receptor) [nM]	Ki [1] [nM]
Y[Aib]EGTFISDYSI[αMeL]LDKK([AEEA-AEEA-γGlu-C20 diacid])HQ[Aib]DFVEYLLEGGPSSGAPPPS-NH2 (N-terminus assumed; SMILES CC[C@H](C)[C@H](NC(=O)[C@H](Cc1ccccc1)NC(=O)[C@@H](NC(=O)CNC(=O)[C@H](CCC(=O)O)NC(=O)C(C)(C)NC(=O)[C@@H](N)Cc1ccc(O)cc1)[C@@H](C)O)C(=O)N[C@@H](CO)C(=O)N[C@@H](CC(=O)O)C(=O)N[C@@H](Cc1ccc(O)cc1)C(=O)N[C@@H](CO)C(=O)N[C@H](C(=O)N[C@@](C)(CC(C)C)C(=O)N[C@@H](CC(C)C)C(=O)N[C@@H](CC(=O)O)C(=O)N[C@@H](CCCCN)C(=O)N[C@@H](CCCCNC(=O)COCCOCCNC(=O)COCCOCCNC(=O)CC[C@H](NC(=O)CCCCCCCCCCCCCCCCCCC(=O)O)C(=O)O)C(=O)N[C@@H](Cc1c[nH]cn1)C(=O)N[C@@H](CCC(N)=O)C(=O)NC(C)(C)C(=O)N[C@@H](CC(=O)O)C(=O)N[C@@H](Cc1ccccc1)C(=O)N[C@H](C(=O)N[C@@H](CCC(=O)O)C(=O)N[C@@H](Cc1ccc(O)cc1)C(=O)N[C@@H](CC(C)C)C(=O)N[C@@H](CC(C)C)C(=O)N[C@@H](CCC(=O)O)C(=O)NCC(=O)NCC(=O)N1CCC[C@H]1C(=O)N[C@@H](CO)C(=O)N[C@@H](CO)C(=O)NCC(=O)N[C@@H](C)C(=O)N1CCC[C@H]1C(=O)N1CCC[C@H]1C(=O)N1CCC[C@H]1C(=O)N[C@@H](CO)C(N)=O)C(C)C)[C@@H](C)CC) [Example 69]	114	144	0.0406
Y[Aib]EGT[αMePhe(2-F)]ISDYSI[αMeL]LDKK([AEEA-AEEA-γGlu-C20 diacid])HQ[Aib]DFVE[4Pal]LLAGGPSSGAPPPS-NH2 (N-terminus assumed; SMILES CC[C@H](C)[C@H](NC(=O)[C@H](CO)NC(=O)[C@H](Cc1ccc(O)cc1)NC(=O)[C@H](CC(=O)O)NC(=O)[C@H](CO)NC(=O)[C@@H](NC(=O)[C@](C)(Cc1ccccc1F)NC(=O)[C@@H](NC(=O)CNC(=O)[C@H](CCC(=O)O)NC(=O)C(C)(C)NC(=O)[C@@H](N)Cc1ccc(O)cc1)[C@@H](C)O)[C@@H](C)CC)C(=O)N[C@@](C)(CC(C)C)C(=O)N[C@@H](CC(C)C)C(=O)N[C@@H](CC(=O)O)C(=O)N[C@@H](CCCCN)C(=O)N[C@@H](CCCCNC(=O)COCCOCCNC(=O)COCCOCCNC(=O)CC[C@H](NC(=O)CCCCCCCCCCCCCCCCCCC(=O)O)C(=O)O)C(=O)N[C@@H](Cc1c[nH]cn1)C(=O)N[C@@H](CCC(N)=O)C(=O)NC(C)(C)C(=O)N[C@@H](CC(=O)O)C(=O)N[C@@H](Cc1ccccc1)C(=O)N[C@H](C(=O)N[C@@H](CCC(=O)O)C(=O)N[C@@H](Cc1ccncc1)C(=O)N[C@@H](CC(C)C)C(=O)N[C@@H](CC(C)C)C(=O)N[C@@H](C)C(=O)NCC(=O)NCC(=O)N1CCC[C@H]1C(=O)N[C@@H](CO)C(=O)N[C@@H](CO)C(=O)NCC(=O)N[C@@H](C)C(=O)N1CCC[C@H]1C(=O)N1CCC[C@H]1C(=O)N1CCC[C@H]1C(=O)N[C@@H](CO)C(N)=O)C(C)C) [Example 51]	26.7	54.1	0.0386
Y[Aib]EGT[αMeF]ISDYSI[αMeL]LDKK([AEEA-AEEA-γGlu-C20 diacid])HQ[Aib]EFVE[4Pal]LLAQGPSSGAPPPS-NH2 (N-terminus assumed; SMILES CC[C@H](C)[C@H](NC(=O)[C@H](CO)NC(=O)[C@H](Cc1ccc(O)cc1)NC(=O)[C@H](CC(=O)O)NC(=O)[C@H](CO)NC(=O)[C@@H](NC(=O)[C@](C)(Cc1ccccc1)NC(=O)[C@@H](NC(=O)CNC(=O)[C@H](CCC(=O)O)NC(=O)C(C)(C)NC(=O)[C@@H](N)Cc1ccc(O)cc1)[C@@H](C)O)[C@@H](C)CC)C(=O)N[C@@](C)(CC(C)C)C(=O)N[C@@H](CC(C)C)C(=O)N[C@@H](CC(=O)O)C(=O)N[C@@H](CCCCN)C(=O)N[C@@H](CCCCNC(=O)COCCOCCNC(=O)COCCOCCNC(=O)CC[C@H](NC(=O)CCCCCCCCCCCCCCCCCCC(=O)O)C(=O)O)C(=O)N[C@@H](Cc1c[nH]cn1)C(=O)N[C@@H](CCC(N)=O)C(=O)NC(C)(C)C(=O)N[C@@H](CCC(=O)O)C(=O)N[C@@H](Cc1ccccc1)C(=O)N[C@H](C(=O)N[C@@H](CCC(=O)O)C(=O)N[C@@H](Cc1ccncc1)C(=O)N[C@@H](CC(C)C)C(=O)N[C@@H](CC(C)C)C(=O)N[C@@H](C)C(=O)N[C@@H](CCC(N)=O)C(=O)NCC(=O)N1CCC[C@H]1C(=O)N[C@@H](CO)C(=O)N[C@@H](CO)C(=O)NCC(=O)N[C@@H](C)C(=O)N1CCC[C@H]1C(=O)N1CCC[C@H]1C(=O)N1CCC[C@H]1C(=O)N[C@@H](CO)C(N)=O)C(C)C) [Example 60]	26.2	51.4	0.039
Y[Aib]EGT[αMeF]ISDYSI[αMeL]LDKK([AEEA-AEEA-γGlu-C20 diacid])HQ[Aib]EFVE[4Pal]LLATGPSSGAPPPS-NH2 (N-terminus assumed; SMILES CC[C@H](C)[C@H](NC(=O)[C@H](CO)NC(=O)[C@H](Cc1ccc(O)cc1)NC(=O)[C@H](CC(=O)O)NC(=O)[C@H](CO)NC(=O)[C@@H](NC(=O)[C@](C)(Cc1ccccc1)NC(=O)[C@@H](NC(=O)CNC(=O)[C@H](CCC(=O)O)NC(=O)C(C)(C)NC(=O)[C@@H](N)Cc1ccc(O)cc1)[C@@H](C)O)[C@@H](C)CC)C(=O)N[C@@](C)(CC(C)C)C(=O)N[C@@H](CC(C)C)C(=O)N[C@@H](CC(=O)O)C(=O)N[C@@H](CCCCN)C(=O)N[C@@H](CCCCNC(=O)COCCOCCNC(=O)COCCOCCNC(=O)CC[C@H](NC(=O)CCCCCCCCCCCCCCCCCCC(=O)O)C(=O)O)C(=O)N[C@@H](Cc1c[nH]cn1)C(=O)N[C@@H](CCC(N)=O)C(=O)NC(C)(C)C(=O)N[C@@H](CCC(=O)O)C(=O)N[C@@H](Cc1ccccc1)C(=O)N[C@H](C(=O)N[C@@H](CCC(=O)O)C(=O)N[C@@H](Cc1ccncc1)C(=O)N[C@@H](CC(C)C)C(=O)N[C@@H](CC(C)C)C(=O)N[C@@H](C)C(=O)N[C@H](C(=O)NCC(=O)N1CCC[C@H]1C(=O)N[C@@H](CO)C(=O)N[C@@H](CO)C(=O)NCC(=O)N[C@@H](C)C(=O)N1CCC[C@H]1C(=O)N1CCC[C@H]1C(=O)N1CCC[C@H]1C(=O)N[C@@H](CO)C(N)=O)[C@@H](C)O)C(C)C) [Example 61]	80.4	135	0.0665
Y[Aib]EGT[αMeF]ISDYSI[αMeL]LDKK([AEEA-AEEA-γGlu-C20 diacid])HQ[Aib]EFVE[4Pal]LLAAGPSSGAPPPS-NH2 (N-terminus assumed; SMILES CC[C@H](C)[C@H](NC(=O)[C@H](CO)NC(=O)[C@H](Cc1ccc(O)cc1)NC(=O)[C@H](CC(=O)O)NC(=O)[C@H](CO)NC(=O)[C@@H](NC(=O)[C@](C)(Cc1ccccc1)NC(=O)[C@@H](NC(=O)CNC(=O)[C@H](CCC(=O)O)NC(=O)C(C)(C)NC(=O)[C@@H](N)Cc1ccc(O)cc1)[C@@H](C)O)[C@@H](C)CC)C(=O)N[C@@](C)(CC(C)C)C(=O)N[C@@H](CC(C)C)C(=O)N[C@@H](CC(=O)O)C(=O)N[C@@H](CCCCN)C(=O)N[C@@H](CCCCNC(=O)COCCOCCNC(=O)COCCOCCNC(=O)CC[C@H](NC(=O)CCCCCCCCCCCCCCCCCCC(=O)O)C(=O)O)C(=O)N[C@@H](Cc1c[nH]cn1)C(=O)N[C@@H](CCC(N)=O)C(=O)NC(C)(C)C(=O)N[C@@H](CCC(=O)O)C(=O)N[C@@H](Cc1ccccc1)C(=O)N[C@H](C(=O)N[C@@H](CCC(=O)O)C(=O)N[C@@H](Cc1ccncc1)C(=O)N[C@@H](CC(C)C)C(=O)N[C@@H](CC(C)C)C(=O)N[C@@H](C)C(=O)N[C@@H](C)C(=O)NCC(=O)N1CCC[C@H]1C(=O)N[C@@H](CO)C(=O)N[C@@H](CO)C(=O)NCC(=O)N[C@@H](C)C(=O)N1CCC[C@H]1C(=O)N1CCC[C@H]1C(=O)N1CCC[C@H]1C(=O)N[C@@H](CO)C(N)=O)C(C)C) [Example 62]	31.3	47.6	0.0414
YXEGTXISDYSIXLDKKHQXDFVEXLLEGGPSSGAPPPS (Aib2; Iva6; αMeL13; K17((2-[2-(2-Amino-ethoxy)-ethoxy]-acetyl)2-(γ-Glu)-CO-(CH2)18-CO2H); Aib20; 4-Pal25; C-terminal amide) [Example 74]	511	395	0.0287
YXEGTXISDYSIXLDKKHQXDFVEXLLEAGPSSGAPPPS (Aib2; Iva6; αMeL13; K17((2-[2-(2-Amino-ethoxy)-ethoxy]-acetyl)2-(γ-Glu)-CO-(CH2)18-CO2H); Aib20; 4-Pal25; C-terminal amide) [Example 88]	788	261	0.083
